In patent US20140154261A1 (TORAY INDUSTRIES, published 2014):

T1: CAPRIN-1 protein on the cell surface of human cancer cell lines (human, UniProt Q14444 2-709)
T1 sequence (looked up): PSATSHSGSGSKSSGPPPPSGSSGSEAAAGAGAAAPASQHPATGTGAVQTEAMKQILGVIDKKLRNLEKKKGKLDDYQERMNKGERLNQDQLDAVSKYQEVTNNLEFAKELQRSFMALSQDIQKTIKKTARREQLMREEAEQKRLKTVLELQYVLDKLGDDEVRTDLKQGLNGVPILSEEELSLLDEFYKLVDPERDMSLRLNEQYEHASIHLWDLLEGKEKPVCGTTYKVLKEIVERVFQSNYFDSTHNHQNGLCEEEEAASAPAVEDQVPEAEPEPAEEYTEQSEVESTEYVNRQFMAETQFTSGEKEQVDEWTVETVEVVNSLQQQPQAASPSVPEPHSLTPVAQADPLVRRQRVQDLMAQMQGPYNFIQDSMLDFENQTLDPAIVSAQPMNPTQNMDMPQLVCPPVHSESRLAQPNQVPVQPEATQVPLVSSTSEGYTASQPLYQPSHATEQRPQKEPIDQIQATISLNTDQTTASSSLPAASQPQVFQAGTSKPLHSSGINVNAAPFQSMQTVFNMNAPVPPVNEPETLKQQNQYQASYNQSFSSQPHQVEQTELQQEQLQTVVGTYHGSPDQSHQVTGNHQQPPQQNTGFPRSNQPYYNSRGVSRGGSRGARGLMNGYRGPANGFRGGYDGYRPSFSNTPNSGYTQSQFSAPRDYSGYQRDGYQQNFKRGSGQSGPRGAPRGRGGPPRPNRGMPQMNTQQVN


What follows are binders tested against T1, CAPRIN-1 protein on the cell surface of … (assay: cell-based or functional assay).

Row | Binder | cytotoxic activity (ADCC, chromium 51 release) against MCF7, QG56, HCT-116, MIAPaCa-2 and Caki-2 [%]
1 | human-mouse chimeric comparative monoclonal antibody 4 (antibody, human IgG1, kappa, V domains shown) VH: EVQLHQFGAELVKPGASVKISCKASGYTFTDYNMDWVKQSHGKSLEWIGDINPNYDSTSYNQKFKGKATLTVDKSSSTAYMELRSLTSEDTAVYYCARSRSYDYEGFAYWGQGTLVTVSA VL: SGDRVSLSCRASQSISNYLHWYQQKSHESPRLLIKYASQSISGIPSRFSGSGSGTDFTLSINSVETEDFGMYFCQQSNSWPYTFGAGTKLEIKQ | < 5
2 | human-mouse chimeric comparative monoclonal antibody 7 (antibody, human IgG1, kappa, V domains shown) VH: LQESGAELARPGASVKLSCKASGYTFTSYWMQWVKQRPGQGLEWIGAIYPGDGDTRYTQKFKGKATLTADKSSSTAYMQLSSLASEDSAVYYCARGEYGNYFAYWGQGTTVTVSS VL: TSDASLGERVTITCKASQDINSYLSWFQQKPGKSPKTLIYRANRLVDGVPSRFSGSGSGQDYSLTISSLEYEDMGIYYCLQYDEFPLTFGGGTKLEIKQ | < 5
3 | human-mouse chimeric comparative monoclonal antibody 1 (antibody) heavy: not shown light: DIQMTQSPASLSASVGETVTITCRASGNIHNYLAWYQQKQGKSPQLLVYNAKTLADGVPSRFSGSGSGTQYSLKINSLQPEDFGSYYCQHFWSTLTFGAGTKLELKRTVAAPSVFIFPPSDEQLKSGTASVVCLLNNFYPREAKVQWKVDNALQSGNSQESVTEQDSKDSTYSLSSTLTLSKADYEKHKVYACEVTHQGLSSPVTKSFNRGEC | < 5
4 | human-mouse chimeric comparative monoclonal antibody 3 (antibody, human IgG1, kappa) heavy: not shown light: RTTSHMDSDIQLTQSPASLSASVGETVTITCRASGNIHNYLAWYQQKQGKSPQLLVYNAKTLADGVPSRFSGSGSGTQYSLKINSLQPEDFGSYYCQHFWSTLTFGGGTKLEIKQSDTVAAPSVFIFPPSDEQLKSGTASVVCLLNNFYPREAKVQWKVDNALQSGNSQESVTEQDSKDSTYSLSSTLTLSKADYEKHKVYACEVTHQGLSSPVTKSFNRGEC | < 5
